According to patent US20240269235A1 (Gilead, published 2024):
Like-named read-outs stand apart in the source and are kept apart here.

Legend:
[1] = target: T1, trimeric murine IL-2 receptor (IL-2Rα, IL-2Rβ, and IL-2Rγ) on CTLL-2 cells (murine, UniProt P01590 22-268; P16297 27-539; P34902 23-369); test: cell-based or functional assay
T1 sequence (looked up) 1: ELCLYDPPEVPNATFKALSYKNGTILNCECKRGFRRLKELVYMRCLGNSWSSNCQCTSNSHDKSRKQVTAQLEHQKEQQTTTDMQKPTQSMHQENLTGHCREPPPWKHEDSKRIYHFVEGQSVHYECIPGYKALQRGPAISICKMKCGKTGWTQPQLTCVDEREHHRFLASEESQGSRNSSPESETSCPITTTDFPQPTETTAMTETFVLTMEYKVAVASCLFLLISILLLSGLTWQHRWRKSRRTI
T1 sequence (looked up) 2: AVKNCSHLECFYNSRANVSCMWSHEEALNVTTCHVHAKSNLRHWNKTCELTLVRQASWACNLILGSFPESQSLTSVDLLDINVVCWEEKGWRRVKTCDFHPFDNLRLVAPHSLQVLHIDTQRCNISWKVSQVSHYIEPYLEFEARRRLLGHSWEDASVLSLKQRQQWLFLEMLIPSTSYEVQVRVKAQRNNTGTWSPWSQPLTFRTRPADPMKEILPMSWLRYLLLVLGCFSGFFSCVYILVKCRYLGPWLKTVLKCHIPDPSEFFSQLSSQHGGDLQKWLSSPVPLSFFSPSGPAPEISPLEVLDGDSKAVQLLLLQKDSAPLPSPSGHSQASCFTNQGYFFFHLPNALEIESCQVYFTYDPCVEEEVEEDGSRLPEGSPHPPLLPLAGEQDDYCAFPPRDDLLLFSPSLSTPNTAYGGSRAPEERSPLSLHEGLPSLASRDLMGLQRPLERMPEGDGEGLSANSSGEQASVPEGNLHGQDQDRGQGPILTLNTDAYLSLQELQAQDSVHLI
T1 sequence (looked up) 3: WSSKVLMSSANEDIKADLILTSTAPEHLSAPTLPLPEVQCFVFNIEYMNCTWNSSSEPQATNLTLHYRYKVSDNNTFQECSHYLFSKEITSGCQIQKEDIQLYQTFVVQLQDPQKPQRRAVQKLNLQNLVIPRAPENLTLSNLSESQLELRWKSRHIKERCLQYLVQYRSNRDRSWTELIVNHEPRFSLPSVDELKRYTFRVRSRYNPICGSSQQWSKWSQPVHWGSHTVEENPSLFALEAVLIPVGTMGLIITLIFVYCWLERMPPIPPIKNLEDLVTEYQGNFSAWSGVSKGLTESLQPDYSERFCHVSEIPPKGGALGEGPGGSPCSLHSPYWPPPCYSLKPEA

[2] = target: T1, trimeric murine IL-2 receptor (IL-2Rα, …); test: cell-based or functional assay; remark: listed apart in the source
[3] = target: T2, IL-2Rα (recombinant IL-2 receptor α, R&D Systems Cat #: 223-2A/CF), biotinylated (human, UniProt P01589 22-213, limits assumed, biotinylated using sulfo-NHS-LC-LC-Biotin); test: SPR (Biacore), CM4 chip, biotinylated receptor on neutravidin
T2 construct: Bought reagent; also used here as the IL-2Rα partner of the in-silico analysis of PDB 2B5I (another construct); also called IL-2RA; CD25
T2 sequence (looked up): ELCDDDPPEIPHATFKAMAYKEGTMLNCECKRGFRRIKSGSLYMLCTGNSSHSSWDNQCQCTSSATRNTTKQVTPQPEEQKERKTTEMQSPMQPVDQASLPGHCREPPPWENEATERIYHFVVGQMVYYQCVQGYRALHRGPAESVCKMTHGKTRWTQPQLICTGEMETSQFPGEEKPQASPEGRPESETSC

[4] = target: T3, IL-2Rβγ heterodimer, custom biotinylated Fc fusion protein (human IL-2Rβ 27-240-Fc-FLAG / human IL-2Rγ … (human, site-specific biotinylation at the AviTag)); test: as above
T3 construct: Extracellular regions fused to IgG1 knob-in-hole Fc subunits with tags; also called IL-2 receptor βγ heterodimer; Fc-IL-2Rβγ

B1: Fc-IL-2 heterodimer 117.46 (hIL-2v_Δ1-5_C125S), native IL-2Rα binding interface (Fc fusion)
chain 1: ESKYGPPCPPCPAPEAAGGPSVFLFPPKPKDTLMISRTPEVTCVVVDVSQEDPEVQFNWYVDGVEVHNAKTKPREEQFNSTYRVVSVLTVLHQDWLNGKEYKCKVSNKGLPSSIEKTISKAKGQPREPQVYTLPPSQEEMTKNQVSLWCLVKGFYPSDIAVEWESNGQPENNYKTTPPVLDSDGSFFLYSRLTVDKSRWQEGNVFSCSVMHEALHNHYTQKSLSLSLGGGGGSGGGGSGGGGSGGGGSSTKKTQLQLEHLLLDLQMILNGINNYKNPKLTRMLTFKFYMPKKATELKHLQCLEEELKPLEEVLNLAQSKNFHLRPRDLISNINVIVLELKGSETTFMCEYADETATIVEFLNRWITFSQSIISTLT
chain 2: ESKYGPPCPPCPAPEAAGGPSVFLFPPKPKDTLMISRTPEVTCVVVDVSQEDPEVQFNWYVDGVEVHNAKTKPREEQFNSTYRVVSVLTVLHQDWLNGKEYKCKVSNKGLPSSIEKTISKAKGQPREPQVYTLPPSQEEMTKNQVSLSCAVKGFYPSDIAVEWESNGQPENNYKTTPPVLDSDGSFFLVSRLTVDKSRWQEGNVFSCSVMHEALHNRFTQKSLSLSLGK
notes: hIgG4 knob-in-hole Fc heterodimer
B1 was tested, and the “STAT5 activation of CTLL-2 cells, EC50” value [1] was 0.003 nM, the “STAT5 activation of CTLL-2 cells, EC50” value [2] was 0.002 nM and the Kd [3] was 60 nM. It also gave a Kd [4] of 0.056 nM.
